Laboratory results published in US8022177B2, “Peptides and calcium regulation in mammalian cells” (The Board of Trustees of the University of Illinois, priority 2005, dated 2011).
Substitutions are numbered along the chain they refer to. Names may count otherwise. Where two headings read alike, the source gives them in different places. Each block holds one molecule with its values, some of them ahead of it.

What was measured:
Cav3.1 [1] = molecular target: T1, Cav3.1 (Homo sapiens, UniProt O43497); assay: Whole-cell patch clamp of Cav3.1 current in Cav3.1/HEK cells transfected with chimeras, truncations and point mutants (Example 6); type: cell-based; conditions: FIG. 38, FIG. 41
T1 construct: expressed in transfected cells; host or cells: HEK-293, stably transfected
Procedure: Transfection. HEK-293 cells stably transfected with either Cav3.1 or Cav3.2 were transiently transfected, at 50% confluency, with a bicistronic vector encoding both GFP and γ subunit cDNA's using Lipofectamine 2000 reagent (Invitrogen, Carlsbad, Calif.) as per the manufacturer's recommendations. Cells were visualized using an Nikon inverted microscope with an FITC filter.
Electrophysiology. Whole cell Ca^2+ currents were recorded using an Axon Instruments Axopatch-1D amplifier and Clampex 8.0 software. Pipettes were made from boroscillicate glass and had typical resistances of 2-4 Mohms. The pipette solution contained (in mM) 130 NaCl, 10 EGTA, 2 or 5 MgCl2, 1 CaCl2, 10 HEPES, 3 Tris-ATP, and 0.3 Li2GTP. Two different bath solutions were used. The first, used for experiments with γ subunit chimeras, contained (in mM) 130 NaCl, 1 MgCl2, 2 CaCl2, 10 glucose, 10 HEPES, and 0.03 TTX. The second, used for experiments with γ subunit containg point mutations, contained (in mM) 137 NaCl, 1 KCl, 1 MgCl2, 0.33 NaH2PO4, 2 CaCl2, 10 HEPES. All solutions were adjusted to pH 7.4 with NaOH and 280 mOsm with sucrose. No Cl^− currents were evident in any HEK-293 cells line, stably transfected or not, and no attempt was made to eliminate Cl^− currents from data records.
All electrophysiological data are from current records in which voltage offset was adjusted, pipette capacitance and whole cell capacitance were compensated and series resistance was compensated to >80%. Currents were filtered at 10 kHz and recorded at 40 kHz. In some cases, current records were off-line filtered at 1K. Current voltage relationships were recorded using an on-line P/−4 subtraction procedure to eliminate linear capacitative and leakage currents. Only recordings with less than 50 pA leakage current were used.
Several different protocols were used to determine the biophysical characteristics of currents in HEK-293 cells. The voltage dependence of activation was determined using “tail” currents. Cells were depolarized from a holding potential of −100 mV to test potentials ranging from −90 mV to +60 mV. Pulse durations varied and corresponded to the time to peak current measured at the corresponding test potentials. Following the conditioning pulse cells were re-polarized to −60 mV and the amplitude of the resulting “tail” current measured. The voltage dependence of inactivation was measured by depolarizing the cells to voltages ranging from −120 mV to 50 mV for 500 ms to inactivate the Ca^2+ channels. After this conditioning step the membrane was returned to the holding potential (−100 mV) for 3 ms and then depolarized a second time to +20 mV for 150 ms during which time the peak current was measured. Time constants for inactivation were measured by fitting a single exponential equation to the decay phase of currents elicited by voltage steps from −50 to +30 mV from a holding potential of −100 mV. Time constants for deactivation were measured by fitting either a single or a double exponential to the decay phase of tail currents.
To account for the inherent variation in calcium current density in the HEK-Cav3.1 stable cell line the averaged current density of each test group of cells was normalized to the mean current density of a control group of cells. A minimum of 5 cells (typically 7 to 10) from each group was used to calculate the mean current densities of test and control cells. At least two independent transfections were performed for each test condition. […]

Cav3.1 [2] = molecular target: T1, Cav3.1; assay: Whole-cell patch clamp of Cav3.1 current in Cav3.1-HEK cells transfected with γ6, γ4, their first transmembrane domains or point mutants (Example 3); type: cell-based; conditions: for Normalized Current Density: relative to vector control (100.0%), Table 3.3
Procedure: Transfection. HEK-293 cells stably transfected with the Cav3.1 α1 subunit were transiently transfected with vectors containing GFP and γ subunits cDNA when the cultures reached 50% confluency. Lipofectamine 2000 reagent (Invitrogen) was used following manufacturer's protocol.
Electrophysiology. Whole cell Ca2+ currents were recorded at room temperature using an Axon Instruments Axopatch-1D amplifier, a Digidata 1200 interface and pClamp8.0 software about 48 hours after transfection. Cell capacitance was typically around 10 pF, but ranged from 5-40 pF. Recording micropipettes were made from borosilicate glass (2-3 Mohms tip resistance), and filled with solution contained (in mM) 130 NaCl, 10 EGTA, 2 MgCl2, 1 CaCl2, 10 HEPES, 3 Tris-ATP, and 0.3 Li2GTP or 0.3 Tris-GTP. Tyrode's solution was used as the bath solution. It contained (in mM) 137 NaCl, 1 KCl, 1 MgCl2, 0.33 NaH2PO4, 2 CaCl2, 10 HEPES. Both solutions were adjusted to pH 7.4 with NaOH and 280 mOsm with sucrose.
We determined the biophysical characteristics of Cav3.1 currents in transfected HEK-293 cells and effects of the first transmembrane domain of γ4 and γ6 on these properties. Test parameters were optimized for studying Cav3.1 current. The time constant (τ) of deactivation (τdeac) was obtained by single exponential fitting of tail currents. For Cav3.1 currents, the cells were clamped at a holding potential of −100 mV, then depolarized to −20 mV for 4 msec, and repolarized to various voltages from −120 mV to −60 mV at 10 mV interval for 150 msec to elicit tail currents.
The voltage dependence of activation was measured using tail currents. For Cav3.1 currents, the cells were clamped at a holding potential equal to −100 mV, and then depolarized briefly to a conditioning potential, varying from −90 mV to +60 mV, and finally clamped at −60 mV before inactivation. Using this protocol, all tail currents are elicited at the same driving force (at −60 mV), so the current amplitude accurately reflects the number of channels opened during the different conditioning potentials.
A series of conditioning prepulses of 500 msec were used to measure voltage dependence of inactivation in our experiments. Channels initially open and then reach steady-state inactivation during the 500 msec long prepulses. The membrane potential is stepped to a fixed test potential of −20 mV, where maximal peak current is elicited. Currents elicited at each test potential reflect how many channels are not in the inactivated state after a steady-state inactivation; that is, how many channels are available to open. The conditioning prepulse potentials were changed from −120 mV to 50 mV, and the test potential is fixed at −20 mV.
Data collection and analysis. To probe the structural features necessary for the function of γ subunits, we are using HEK-293 cell line stably transfected with Cav3.1 α1 subunit. These cells are then transiently transfected with vectors containing various chimeric, truncated or mutant gamma subunits. […] There is inherent variation in calcium current density in the HEK-Cav3.1 stable cell line likely due to differences in the batch used, passenger number, extent of cellular confluence, or for other unknown reasons. The averaged current density of each test group of cells was normalized to the mean current density of a parallel control group of cells plated from the same batch of cells and analyzed on the same day. A minimum of 5 cells (typically 7 to 10) from each group was used to calculate the mean behavior of test and control cells from each days recording. At least two independent transfections were performed for each test condition. Overall, averages were obtained from 21 control groups of cells that had been transfected with empty vector over several months. The data are pooled together to reduce the variance. […] The current density of the control cells over many months justified the pooling of data recorded from different batches of cells transfected with mutated γ subunits. […]

T1 sequence (O43497 whole entry, the tested form may be a part): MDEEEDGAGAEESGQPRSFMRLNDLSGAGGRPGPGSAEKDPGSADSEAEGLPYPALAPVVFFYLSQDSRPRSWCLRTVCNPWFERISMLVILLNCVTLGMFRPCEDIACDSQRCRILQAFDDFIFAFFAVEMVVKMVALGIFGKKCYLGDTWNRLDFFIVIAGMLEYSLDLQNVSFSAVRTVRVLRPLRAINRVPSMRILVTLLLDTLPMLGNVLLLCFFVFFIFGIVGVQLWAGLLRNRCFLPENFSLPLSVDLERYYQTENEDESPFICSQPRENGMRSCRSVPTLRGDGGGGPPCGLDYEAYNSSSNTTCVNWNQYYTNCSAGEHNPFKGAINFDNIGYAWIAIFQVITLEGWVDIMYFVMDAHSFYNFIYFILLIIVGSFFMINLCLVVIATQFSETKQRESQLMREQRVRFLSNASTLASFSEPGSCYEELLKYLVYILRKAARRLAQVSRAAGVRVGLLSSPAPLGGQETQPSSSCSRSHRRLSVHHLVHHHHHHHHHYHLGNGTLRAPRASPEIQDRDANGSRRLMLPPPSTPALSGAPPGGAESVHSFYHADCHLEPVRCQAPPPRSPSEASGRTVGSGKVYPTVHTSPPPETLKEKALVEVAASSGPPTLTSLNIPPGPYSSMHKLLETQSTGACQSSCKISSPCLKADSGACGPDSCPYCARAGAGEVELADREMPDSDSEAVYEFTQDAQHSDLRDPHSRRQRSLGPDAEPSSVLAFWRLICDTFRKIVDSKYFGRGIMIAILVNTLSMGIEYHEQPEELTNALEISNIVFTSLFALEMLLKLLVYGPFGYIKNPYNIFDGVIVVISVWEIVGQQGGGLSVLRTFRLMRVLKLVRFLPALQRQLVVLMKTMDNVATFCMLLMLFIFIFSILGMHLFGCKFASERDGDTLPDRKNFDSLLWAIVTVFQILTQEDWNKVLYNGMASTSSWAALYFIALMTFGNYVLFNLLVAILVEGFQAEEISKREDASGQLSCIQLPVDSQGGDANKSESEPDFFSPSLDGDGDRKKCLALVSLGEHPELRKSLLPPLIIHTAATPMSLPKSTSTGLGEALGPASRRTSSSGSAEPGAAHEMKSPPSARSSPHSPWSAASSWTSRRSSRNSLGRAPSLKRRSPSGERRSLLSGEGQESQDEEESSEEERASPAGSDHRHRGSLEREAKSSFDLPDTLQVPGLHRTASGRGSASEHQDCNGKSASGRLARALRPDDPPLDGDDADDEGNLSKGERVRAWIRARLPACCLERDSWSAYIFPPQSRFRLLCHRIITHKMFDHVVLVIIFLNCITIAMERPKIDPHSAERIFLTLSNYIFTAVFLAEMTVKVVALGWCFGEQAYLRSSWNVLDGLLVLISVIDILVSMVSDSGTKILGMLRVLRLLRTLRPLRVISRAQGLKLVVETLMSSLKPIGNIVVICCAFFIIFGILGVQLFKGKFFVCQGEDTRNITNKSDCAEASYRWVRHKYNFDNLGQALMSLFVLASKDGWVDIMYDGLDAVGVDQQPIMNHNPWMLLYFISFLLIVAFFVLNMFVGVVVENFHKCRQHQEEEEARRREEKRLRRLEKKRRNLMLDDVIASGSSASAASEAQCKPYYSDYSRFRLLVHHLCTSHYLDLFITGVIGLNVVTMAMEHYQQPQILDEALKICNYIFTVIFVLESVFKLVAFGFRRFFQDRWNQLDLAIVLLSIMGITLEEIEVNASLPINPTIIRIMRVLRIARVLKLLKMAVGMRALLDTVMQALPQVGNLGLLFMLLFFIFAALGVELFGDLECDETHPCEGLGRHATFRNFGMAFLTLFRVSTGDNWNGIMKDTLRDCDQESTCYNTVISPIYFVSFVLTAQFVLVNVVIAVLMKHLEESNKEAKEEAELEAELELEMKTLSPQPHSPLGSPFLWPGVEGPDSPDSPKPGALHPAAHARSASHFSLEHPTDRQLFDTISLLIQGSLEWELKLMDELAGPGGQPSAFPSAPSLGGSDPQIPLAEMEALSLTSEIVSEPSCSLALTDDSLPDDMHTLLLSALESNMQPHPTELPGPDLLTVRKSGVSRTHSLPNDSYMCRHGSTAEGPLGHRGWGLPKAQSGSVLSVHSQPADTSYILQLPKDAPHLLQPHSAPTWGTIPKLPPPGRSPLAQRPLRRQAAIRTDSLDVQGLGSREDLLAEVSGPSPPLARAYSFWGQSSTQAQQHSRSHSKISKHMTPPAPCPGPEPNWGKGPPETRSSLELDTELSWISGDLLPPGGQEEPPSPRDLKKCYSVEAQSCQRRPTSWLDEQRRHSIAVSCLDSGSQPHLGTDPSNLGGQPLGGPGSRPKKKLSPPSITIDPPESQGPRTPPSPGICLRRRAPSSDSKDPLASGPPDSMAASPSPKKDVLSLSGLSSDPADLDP

- Effect on Cav3.1 calcium current density (Cav3.1 [1]): does not alter calcium current density
- Inhibitory function on Cav3.1 calcium current (Cav3.1 [2]): no effect on Cav3.1 calcium current
B1: γ1: wild-type calcium channel γ1 subunit (protein, UniProt Q06432 1-222, looked up)
Voltage-dependent calcium …: MSQTKMLKVRVTLFCILAGIVLAMTAVVTDHWAVLSPHMEHHNTTCEAAHFGLWRICTKRIPMDDSKTCGPITLPGEKNCSYFRHFNPGESSEIFEFTTQKEYSISAAAIAIFSLGFIILGSLCVLLSLGKKRDYLLRPASMFYAFAGLCILVSVEVMRQSVKRMIDSEDTVWIEYYYSWSFACACAAFILLFLGGLALLLFSLPRMPRNPWESCMDAEPEH

- Effect on Cav3.1 calcium current density (Cav3.1 [1]): also altered Cav3.1 current density
- Inhibitory function on Cav3.1 calcium current (Cav3.1 [2]): did not inhibit calcium current
- Inhibitory function on Cav3.1 calcium current (Cav3.1 [2]; listed as A461): no longer inhibitory
B2: γ6 A46I: γ6 mutant, alanine 46 replaced by isoleucine (protein, UniProt Q9BXT2 1-260, looked up, variant A46I)
Voltage-dependent calcium …: MMWSNFFLQEENRRRGAAGRRRAHGQGRSGLTPEREGKVKLALLLIAVGATLAVLSVGTEFWVELNTYKANGSAVCEAAHLGLWKACTKRLWQADVPVDRDTCGPAELPGEANCTYFKFFTTGENARIFQRTTKKEVNLAAAVIAVLGLAVMALGCLCIIMVLSKGAEFLLRVGAVCFGLSGLLLLVSLEVFRHSVRALLQRVSPEPPPAPRLTYEYSWSLGCGVGAGLILLLGAGCFLLLTLPSWPWGSLCPKRGHRAT

- Normalized current density, % of control (Cav3.1 [1]; Cav3.1/HEK cells): 67.6%±5.9%
- Normalized Current Density (Cav3.1 [2]): 67.6%
- Normalized Current Density (Cav3.1 [2]; listed as G49A): 67.6%±5.9%
B3: γ6 G49A: γ6 with glycine 49 mutated to alanine (protein, UniProt Q9BXT2 1-260, looked up, variant G49A)
Voltage-dependent calcium …: B2 Voltage-dependent calcium … with I46A, G49A
